This is an account of results in article PMC11462610, “PpBBX32 and PpZAT5 modulate temperature-dependent and tissue-specific anthocyanin accumulation in peach fruit”.

The target of data set [1] is T1, PpZAT5 (Prunus persica, UniProt A0A251NAP4 1-283).
T1 sequence: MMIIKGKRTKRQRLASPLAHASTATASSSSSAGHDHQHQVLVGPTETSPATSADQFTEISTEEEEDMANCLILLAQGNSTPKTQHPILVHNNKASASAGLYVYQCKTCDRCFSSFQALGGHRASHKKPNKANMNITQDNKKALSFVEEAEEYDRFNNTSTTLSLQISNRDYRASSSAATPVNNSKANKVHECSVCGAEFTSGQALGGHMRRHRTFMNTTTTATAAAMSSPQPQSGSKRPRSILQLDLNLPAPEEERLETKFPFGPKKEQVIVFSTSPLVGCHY
Nature of the data set: EMSA; shift weakened by increasing cold probe; LightShift Chemiluminescent EMSA kit (Thermo), biotin-labeled probes; buffer, salt, pH and temperature not stated. The conditions noted are these: protein: recombinant; tags: N-terminal His-trigger factor (pColdTF fusion); label: biotin; blunt.

The target of data set [2] is T1, PpZAT5. Description: EMSA; LightShift Chemiluminescent EMSA kit (Thermo), biotin-labeled probes; buffer, salt, pH and temperature not stated. The conditions noted are these: protein: recombinant; tags: N-terminal His-trigger factor (pColdTF fusion); blunt.
The target in data set [3] is T2, PpBBX32 (Prunus persica, UniProt A0A251PTV0 1-264).
T2 sequence: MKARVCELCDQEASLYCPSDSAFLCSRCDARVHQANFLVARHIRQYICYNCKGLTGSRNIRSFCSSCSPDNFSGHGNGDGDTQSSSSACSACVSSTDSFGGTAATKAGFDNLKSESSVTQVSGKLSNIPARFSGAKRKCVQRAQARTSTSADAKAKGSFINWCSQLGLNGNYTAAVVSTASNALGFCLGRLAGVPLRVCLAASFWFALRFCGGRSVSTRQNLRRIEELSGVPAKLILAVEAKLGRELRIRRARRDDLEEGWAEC
Nature of the data set: EMSA; shift weakened by increasing cold probe; LightShift Chemiluminescent EMSA kit (Thermo), biotin-labeled probes; buffer, salt, pH and temperature not stated. The note with it: protein: recombinant; tags: N-terminal His-trigger factor (pColdTF fusion); label: biotin; blunt.

B1: proPpMYB10.1 ACT core element 7 (dsDNA)
DNA 1: TCTTAGCTAACTGTTACTGTTATCAAG
DNA 2: CTTGATAACAGTAACAGTTAGCTAAGA
Regarding B1, the binding result in data set [1] is reported as “binds”.

B2: proPpMYB10.1 ACT core element 7 mutant (dsDNA)
DNA 1: TCTTAGCTAGTTACCCTAGTTATCAAG
DNA 2: CTTGATAACTAGGGTAACTAGCTAAGA
Regarding B2, in data set [2], the binding result is “no binding”.

B3: proPpMYB10.1 G-box1&2 (dsDNA)
DNA 1: CAGCTGTGATACGTGAACCACACGTGCTGACACTA
DNA 2: TAGTGTCAGCACGTGTGGTTCACGTATCACAGCTG
Take B3: the binding result in data set [3] is given as “binds”.
